Assay: yeast display, Sf9 membrane polyspecificity reagent, FACS + sequencing; frameworks hold sequencing errors
Summary of the method: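 In a synthetic yeast display library (Saccharomyces cerevisiae BJ5465), nanobody expression was induced with galactose for 36–48 hours. FACS gates were set low and high (top ~1%) using anti-HA fluorescence for expression and streptavidin fluorescence for binding of the Sf9 membrane reagent. Each polyreactivity label is drawn from the gate of origin.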

| Sequence | polyreactivity (PSR sort gate) |
| --- | --- |
| QVQLVESGGGLVQAGGSLRLSCAASGRTFRWNAMGWSRQAPGKERELVASISSGGRTNYADSVKGRFTLSRDNAKNTVYLQMNSLKPEDTAVYYCAKRVSWPQLYDYWGQGTQVTVSS | high polyreactivity |
| QVQLVESGGGLVQAGGSLRLSCAASGRTFRWNAMGWYRQAPGKERELVAAISSGGSTYYADSVKGRFTISRDNAKNTVYLQMNSLKPEDTAVYYCAKSSFKYRWSYPVISMDYWGQGTQVTVSS | high polyreactivity |
| QVQLVESGGGLVQAGGSLRLSCAASGRTFRWNAMVWYRQEPGKERELVARITSGGRTSYADSVKGRFTISRDNAKNTVYLQMNSLKPEDTAVYYCAARSIGYHWGYDYWGQGTQVTVSS | high polyreactivity |
| QVQLVESGGGLVQAGGSLRLSCAASGRTFRWYAMGWYRPAPAKERELVAAISSRGGSTYYADSVKGRFTISRDNAKNTVFLQMNSLKPEDTAVYYCAAVDNWLTLSDYDYWGQGTQVTVSS | low polyreactivity |
| QVQLVESGGGLVQAGGSLRLSCAASGRTFRWYAMGWYRQAPGKEMELVAALTFRGGRTYYADSVKGRFTISRDNAKNTVYLQMNSLKPEDTAVYYCNAVTYSSPYRFDYWGQGTQVTVSS | low polyreactivity |
| QVQLVESGGGLVQAGGSLRLSCAASGRTFRWYAMGWYRQAPGKERELVAAITSGGGTYYADSVKGRFTIARDNAKNTVYLQMNSLKPEDTAVYYCNKLHRDRYDYWGQGTQVTVSS | high polyreactivity |
| QVQLVESGGGLVQAGGSLRLSCAASGRTFRYNAMGSYRQAPGKERELVAAISGRGSSTYYADSVKGRFTISRDNAKNTVYLQMNSLKPEDTAVYYCAALPASVRRPGWHDYWGQGTQVTVSS | high polyreactivity |
| QVQLVESGGGLVQAGGSLRLSCAASGRTFRYNAMGWSRQAPGKERELVADITKSGGTTYYADSVKGRFTISRDNAKNTVYLQMNSLKPEDTAVYYCNAYRVVHPWEYDYWGQGTQVTVSS | high polyreactivity |
| QVQLVESGGGLVQAGGSLRLSCAASGRTFRYNAMGWYRPAPGKERELVAAITKSGGTTYYADSVKGRFTISRDNAKNTVYLQMNSLKPEDTAVYYCNAYRVVHPWEYDYWGQGTQVTVSS | high polyreactivity |
| QVQLVESGGGLVQAGGSLRLSCAASGRTFRYNTMGCYRQAPGKERELVAAITKGAASTYYADSVKGRFTISRDNAKNTVYLQMNSLKPEDTAVYYCNAVYSRIVTQKYWGQGTQVTVSS | high polyreactivity |
| QVQLVESGGGLVQAGGSLRLSCAASGRTFRYYALGWYRQAPGKERELVAAITSSGDSTYYADSVKGRFTISRDNAKNTVYLQMHSLKQEDTAVYYCADGQPLFYDAEYGYWGQGTQVTVSS | low polyreactivity |
| QVQLVESGGGLVQAGGSLRLSCAASGRTFRYYAMGWYIQAPGKERELVATITGSGGSTYYADSVKGRFTISRDNAKNTVYLQMNSLKPEDTAVYYCNARKVRYPYRWYDYWGQGTQVTVSS | high polyreactivity |
| QVQLVESGGGLVQAGGSLRLSCAASGRTFRYYAMGWYRKAPGKERELVASIRGGGGTNYADSVKGRFTISRDNAKNTVYLQMNSLKPEDTAVYFCAASVGYSRVWLDYWGQGTQVTVSS | high polyreactivity |
| QVQLVESGGGLVQAGGSLRLSCAASGRTFRYYAMGWYRQAPGKERELVAAINRGGSTYYADSVKGRFTISRDNAKNTVYLQMNSLKPEDTAVYYCNTARGSKDPPHYYWGQGSQVTVSS | high polyreactivity |
| QVQLVESGGGLVQAGGSLRLSCAASGRTFRYYAMGWYRQAPGKERELVAAINWNGGRTYYADSVKGRFTISRDNAKNTVYLQMNSLKPEDTAVYYCAAYHYRSPVTGDYWGQGTQVTVSS | high polyreactivity |
| QVQLVESGGGLVQAGGSLRLSCAASGRTFRYYAMGWYRQAPGKERELVAAIRTSGSTNYADSVKGRFTISRDNAKNTVYLQMNSLKPEDTAVYYCAAQPYWRYPYRAERDYWGQGTQVTVSS | high polyreactivity |
| QVQLVESGGGLVQAGGSLRLSCAASGRTFRYYAMGWYRQAPGKERELVAAISVRTGSTSYADSVKGRFTISRDNAKNTVYLQMNSLKPEDTAVYYCNAPQPGKGRTRTRYYYWGQGTQVTVSS | high polyreactivity |
| QVQLVESGGGLVQAGGSLRLSCAASGRTFRYYAMGWYRQAPGKERELVAAISWDGARSYYADSVKGRFTISRDNAKNTVYLQMNSLKPEDTAVYYCAADFPGGTDRYYPMDYWGQGTQVTVSS | low polyreactivity |
| QVQLVESGGGLVQAGGSLRLSCAASGRTFRYYAMGWYRQAPGKERELVAAITSSGGSTYYADSVKGRFTISRDNAKNTVYLQMNSLKPEDTAVYYCNRTPYHAPWQDALYRYGYWGQGTQVTVSS | high polyreactivity |
| QVQLVESGGGLVQAGGSLRLSCAASGRTFRYYAMGWYRQAPGKERELVADISSTGRTYYADSVKGRFTISRDNAKNTVYLQMNSLKPEDTAVYYCNADYFFEFDYWGQGTQVTVSS | low polyreactivity |
| QVQLVESGGGLVQAGGSLRLSCAASGRTFRYYAMGWYRQAPGKERELVASITGSGGSTTYADSVKGRFTISRDNAKNTVYLQMNSLKPEDTAVYYCAVRYPYYSYRAKLGYWGQGTQVTVSS | high polyreactivity |
| QVQLVESGGGLVQAGGSLRLSCAASGRTFRYYAMGWYRQAPGKERELVASITKRGGSTYYADSVKGRFTISRDNAKNTVYLQMNSLKPEDTAVYYCNTRTGSFFQGYYWGQGTQVTVSS | high polyreactivity |

| Sequence | polyreactivity (PSR sort gate) |
| --- | --- |
| QVQLVESGGGLVQAGGSLRLSCAASGRTFRYYAMGWYRQAPGKERELVASITSGGRTYYADSVKGRFTISRDNAKNTVYLQMNSLKPEDTAVYYCAASTRYEGNYWGQGTQVTVSS | high polyreactivity |
| QVQLVESGGGLVQAGGSLRLSCAASGRTFRYYAMGWYRQAPGKVRELVAAINWSGGSTYYADSVKGRFTISRDNAKNTVYLQMNSLKPEDTAVYYCAAVGHPSPPRTDLYYWGQGTQVTVSS | low polyreactivity |
| QVQLVESGGGLVQAGGSLRLSCAASGRTFRYYAMGWYRQEPGKERELVAVITSGASTYYADSVKGRFTISRDNAKNTVYLQMNCLKPEDTAVYYCNARYSWKYDSWGQGTQVTVSS | high polyreactivity |
| QVQLVESGGGLVQAGGSLRLSCAASGRTFRYYAMGWYRQPPGKERELVAAISISGGNTYYADSVKGRFTISRDNAKNTVYLQMNSLKPEDTAVYYCAAAGRGSGYDYWGQGTQVTVSS | high polyreactivity |
| QVQLVESGGGLVQAGGSLRLSCAASGRTFRYYTKGWSRQAPGKERELVADINTSVGSTDYADSVKGRFTISRDNAKNTVYLQMNSLKPEDTAVYYCAKVGFTYYAVDYWGQGTQVTVSS | high polyreactivity |
| QVQLVESGGGLVQAGGSLRLSCAASGRTFRYYVMGWYRQAPGKERELVADISRGGGRTRYADSVKGRFTISRDNAKNTVDLQMNSLKPEDTAVYYCAARSYTGQFGYWGQGTQVTVSS | high polyreactivity |
| QVQLVESGGGLVQAGGSLRLSCAASGRTFSAYAMGWYRQAPGKERELVAAISRRGGSTYYADSVKGRFTISRDNAKNTVYLQMNSLKPEDTAVYYCAADVYKQYGYYYWGQGTQVTVSS | high polyreactivity |
| QVQLVESGGGLVQAGGSLRLSCAASGRTFSAYAMGWYRQAPGKERELVARITSVDSTNYADSVKGRFTISRDNAKNTVYLLMNSLKPEDTAVYYCNATFGYPFVDYDDYWGQGTQVTVSS | low polyreactivity |
| QVQLVESGGGLVQAGGSLRLSCAASGRTFSFYAMGWYRQAPGKERELVAGIDWDDGSTSYADSVKGRFTISRDNAKNTVYLQMNSLKPEDTAVYYCAADIGYDVYNDYDYWGQGTQVTVSS | low polyreactivity |
| QVQLVESGGGLVQAGGSLRLSCAASGRTFSGNAMGWYRQAPGKERELVAAINWRGGRTYYADSVKGRFTISRDNAKNTVYLQMNSLKPEDTAVYYCAVSAYKGYDYWGQGTQVTVSS | high polyreactivity |
| QVQLVESGGGLVQAGGSLRLSCAASGRTFSGNARGWYRQAPGKERELVATITRRGGSTYYADSVKGRFTISRDNAKNTVYLQMNSLKPEDTAVYYCAARRVVNGGQGYESWGQGTQVTVSS | high polyreactivity |
| QVQLVESGGGLVQAGGSLRLSCAASGRTFSGYAMGWDRQAPGKERELDAAISRGGSTNYADSVKGRFTISRDNAKNTVYLQMNSLKPEDTAVYYCAVRVYYGWAQPGYYYWGQGTQVTVSS | high polyreactivity |
| QVQLVESGGGLVQAGGSLRLSCAASGRTFSGYAMGWYRQAPGKERELVAAISSGGGSTYYADSVKGRFTISRDNAKNSVYLQMNSLKPEDTAVYYCAADGYPGDYDYWGQGTQVTVSS | low polyreactivity |
| QVQLVESGGGLVQAGGSLRLSCAASGRTFSGYVMGWYRQAPGKERELVATINGSGASTYYADSVKGRFTISRDNAKNTVYLQTNSLKPEDTAVYYCAAKRYRPKYEYYYWGQGTQVTVSS | high polyreactivity |
| QVQLVESGGGLVQAGGSLRLSCAASGRTFSHNAMGWYRQAPGKERELVATINSGGSTYADSVKGRFTISRDNAKNTVYLQMNSLKPEDTAVYYCNAAHGSRAFFGGYDYWGQGTQVTVSS | high polyreactivity |
| QVQLVESGGGLVQAGGSLRLSCAASGRTFSKNAMGWYRQAPGKERELVADISRRGGRTYYADSVNGRFTISRDNAKNTVYLQMNSLKPEDTAVYYSAARRRGSVGVGYAYPYNYWGQGTQVTVSS | high polyreactivity |
| QVQLVESGGGLVQAGGSLRLSCAASGRTFSNNAMGWYRQAPGKERELVAAISSTGGRTYYADSVKGRFTISRDNAKNTGYLQLNSLKPEDTAVYYCAATYVHYPSLGYDYWGQGTQVTVSS | high polyreactivity |
| QVQLVESGGGLVQAGGSLRLSCAASGRTFSPYAMAWYRQAPGKEREFVAAIRVRGGSTYYADSVKGRFTISRDNAKNTVYLQMNSLKPEDTAVYYCNAQYLVYNGYPYLYDYWGQGTQVTVSS | high polyreactivity |
| QVQLVESGGGLVQAGGSLRLSCAASGRTFSPYAMGWYRQAPGKERELVAAITNGGSTHYADSVKGRFTISRDNAKNTVYLQMNSLKPEDTAVYYPYDYWGQGTQVTVSS | low polyreactivity |
| QVQLVESGGGLVQAGGSLRLSCAASGRTFSPYAMGWYRQAPGKERELVAAITSRGASTYYADSVKGRFTISRDNAKNTVYLQMNSLKPEDTAVYDCNSGRTYRRLGDYWGQGTQVTVSS | high polyreactivity |
| QVQLVESGGGLVQAGGSLRLSCAASGRTFSQNAMGWYRQAPGKERELVAAISWSGGRTYYADSVKGRFTISRDNAKNTVYLQMNSLKPEDTAVYYCAKSQHRTYYYWGQGTQVTVSS | high polyreactivity |

Reference: the nanobody polyreactivity screen of Harvey et al. (2022)
